Measured values taken from paper PMC10397247.

Columns and labels:
4H3907-bA = biological target: T1, 4H3907-bA; assay: two-hybrid library CCNG1;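 also: natural log of median RNA to DNA barcode read ratio; higher means stronger binding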
T1 chain: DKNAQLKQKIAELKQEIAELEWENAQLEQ

4H3592-bA = biological target: T2, 4H3592-bA; assay: two-hybrid library CCNG1;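 also: natural log of median RNA to DNA barcode read ratio; higher means stronger binding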
T2 chain: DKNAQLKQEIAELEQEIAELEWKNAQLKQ

P4A-bH = biological target: T3, P4A-bH; assay: two-hybrid library CCNG1;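 also: natural log of median RNA to DNA barcode read ratio; higher means stronger binding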
T3 chain: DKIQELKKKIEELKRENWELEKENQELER

4H4038-bA = biological target: T4, 4H4038-bA; assay: two-hybrid library CCNG1;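 also: natural log of median RNA to DNA barcode read ratio; higher means stronger binding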
T4 chain: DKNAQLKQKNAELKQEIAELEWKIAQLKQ

4H3601-bA = biological target: T5, 4H3601-bA; assay: two-hybrid library CCNG1;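 also: natural log of median RNA to DNA barcode read ratio; higher means stronger binding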
T5 chain: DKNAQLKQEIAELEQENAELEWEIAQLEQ

4H2253-AA = biological target: T6, 4H2253-AA; assay: two-hybrid library CCmax; conditions: mean of both orientations;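 also: natural log of median RNA to DNA barcode read ratio; higher means stronger binding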
T6 chain: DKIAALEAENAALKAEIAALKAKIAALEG

4H171-AA = biological target: T7, 4H171-AA; assay: two-hybrid library CCmax; conditions: mean of both orientations
T7 chain: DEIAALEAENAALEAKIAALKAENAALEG

4H3120-AA = biological target: T8, 4H3120-AA; assay: two-hybrid library CCmax; conditions: mean of both orientations
T8 chain: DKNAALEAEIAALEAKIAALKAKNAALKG

4H310-AA = biological target: T9, 4H310-AA; assay: two-hybrid library CCmax; conditions: mean of both orientations
T9 chain: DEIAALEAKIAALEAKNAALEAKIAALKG

4H2162-AA = biological target: T10, 4H2162-AA; assay: two-hybrid library CCmax; conditions: mean of both orientations
T10 chain: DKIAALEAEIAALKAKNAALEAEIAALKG

4H485-AA = biological target: T11, 4H485-AA; assay: two-hybrid library CCmax; conditions: mean of both orientations
T11 chain: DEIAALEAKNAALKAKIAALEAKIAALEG

4H3865-AA = biological target: T12, 4H3865-AA; assay: two-hybrid library CCmax; conditions: mean of both orientations
T12 chain: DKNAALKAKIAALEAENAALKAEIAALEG

4H3016-AA = biological target: T13, 4H3016-AA; assay: two-hybrid library CCmax; conditions: mean of both orientations
T13 chain: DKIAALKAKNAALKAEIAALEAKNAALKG

4H2330-AA = biological target: T14, 4H2330-AA; assay: two-hybrid library CCmax; conditions: mean of both orientations
T14 chain: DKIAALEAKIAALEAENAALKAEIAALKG

4H1626-AA = biological target: T15, 4H1626-AA; assay: two-hybrid library CCmax; conditions: mean of both orientations
T15 chain: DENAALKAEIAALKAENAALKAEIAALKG

4H94-AA = biological target: T16, 4H94-AA; assay: two-hybrid library CCmax; conditions: mean of both orientations
T16 chain: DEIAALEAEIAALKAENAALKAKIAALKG

4H536-AA = biological target: T17, 4H536-AA; assay: two-hybrid library CCmax; conditions: mean of both orientations
T17 chain: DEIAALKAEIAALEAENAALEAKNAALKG

4H2109-AA = biological target: T18, 4H2109-AA; assay: two-hybrid library CCmax; conditions: mean of both orientations
T18 chain: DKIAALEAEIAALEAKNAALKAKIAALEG

4H3697-AA = biological target: T19, 4H3697-AA; assay: two-hybrid library CCmax; conditions: mean of both orientations
T19 chain: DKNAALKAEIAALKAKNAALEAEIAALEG

4H458-AA = biological target: T20, 4H458-AA; assay: two-hybrid library CCmax; conditions: mean of both orientations
T20 chain: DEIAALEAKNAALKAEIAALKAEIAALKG

4H1597-AA = biological target: T21, 4H1597-AA; assay: two-hybrid library CCmax
T21 chain: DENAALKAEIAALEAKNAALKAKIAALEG

4H2389-AA = biological target: T22, 4H2389-AA; assay: two-hybrid library CCmax; conditions: mean of both orientations
T22 chain: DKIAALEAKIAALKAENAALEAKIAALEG

4H3590-AA = biological target: T23, 4H3590-AA; assay: two-hybrid library CCmax; conditions: mean of both orientations
T23 chain: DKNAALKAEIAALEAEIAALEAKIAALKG

4H1864-AA = biological target: T24, 4H1864-AA; assay: two-hybrid library CCmax; conditions: mean of both orientations
T24 chain: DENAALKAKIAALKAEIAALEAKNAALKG

4H3753-AA = biological target: T25, 4H3753-AA; assay: two-hybrid library CCmax; conditions: mean of both orientations
T25 chain: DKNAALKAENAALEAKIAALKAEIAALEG

4H850-AA = biological target: T26, 4H850-AA; assay: two-hybrid library CCmax; conditions: mean of both orientations
T26 chain: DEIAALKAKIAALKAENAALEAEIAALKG

4H3395-AA = biological target: T27, 4H3395-AA; assay: two-hybrid library CCmax; conditions: mean of both orientations
T27 chain: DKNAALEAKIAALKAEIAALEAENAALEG

4H745-AA = biological target: T28, 4H745-AA; assay: two-hybrid library CCmax; conditions: mean of both orientations
T28 chain: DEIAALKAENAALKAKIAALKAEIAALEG

4H3410-AA = biological target: T29, 4H3410-AA; assay: two-hybrid library CCmax; conditions: mean of both orientations
T29 chain: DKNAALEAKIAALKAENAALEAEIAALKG

4H2438-AA = biological target: T30, 4H2438-AA; assay: two-hybrid library CCmax; conditions: mean of both orientations
T30 chain: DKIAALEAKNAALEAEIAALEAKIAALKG

4H2725-AA = biological target: T31, 4H2725-AA; assay: two-hybrid library CCmax; conditions: mean of both orientations
T31 chain: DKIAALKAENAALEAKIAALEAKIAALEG

4H570-AA = biological target: T32, 4H570-AA; assay: two-hybrid library CCmax; conditions: mean of both orientations
T32 chain: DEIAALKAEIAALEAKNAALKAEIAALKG

4H710-AA = biological target: T33, 4H710-AA; assay: two-hybrid library CCmax; conditions: mean of both orientations
T33 chain: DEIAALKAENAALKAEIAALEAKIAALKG

4H2649-AA = biological target: T34, 4H2649-AA; assay: two-hybrid library CCmax; conditions: mean of both orientations
T34 chain: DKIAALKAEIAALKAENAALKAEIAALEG

4H2473-AA = biological target: T35, 4H2473-AA; assay: two-hybrid library CCmax; conditions: mean of both orientations
T35 chain: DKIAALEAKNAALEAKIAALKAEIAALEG

4H174-AA = biological target: T36, 4H174-AA; assay: two-hybrid library CCmax; conditions: mean of both orientations
T36 chain: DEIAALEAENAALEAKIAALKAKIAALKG

4H2698-AA = biological target: T37, 4H2698-AA; assay: two-hybrid library CCmax; conditions: mean of both orientations
T37 chain: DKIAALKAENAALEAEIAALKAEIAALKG

4H3381-AA = biological target: T38, 4H3381-AA; assay: two-hybrid library CCmax
T38 chain: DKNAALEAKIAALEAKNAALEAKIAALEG

4H930-AA = biological target: T39, 4H930-AA; assay: two-hybrid library CCmax
T39 chain: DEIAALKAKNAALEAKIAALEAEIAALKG

4H629-AA = biological target: T40, 4H629-AA; assay: two-hybrid library CCmax; conditions: mean of both orientations
T40 chain: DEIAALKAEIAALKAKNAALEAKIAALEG

4H891-AA = biological target: T41, 4H891-AA; assay: two-hybrid library CCmax; conditions: mean of both orientations
T41 chain: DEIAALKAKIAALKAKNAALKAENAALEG

4H1877-AA = biological target: T42, 4H1877-AA; assay: two-hybrid library CCmax; conditions: mean of both orientations
T42 chain: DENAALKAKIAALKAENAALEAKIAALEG

4H2274-AA = biological target: T43, 4H2274-AA; assay: two-hybrid library CCmax; conditions: mean of both orientations
T43 chain: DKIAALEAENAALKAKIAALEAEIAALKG

4H3165-AA = biological target: T44, 4H3165-AA; assay: two-hybrid library CCmax; conditions: mean of both orientations
T44 chain: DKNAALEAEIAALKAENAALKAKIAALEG

4H3009-AA = biological target: T45, 4H3009-AA; assay: two-hybrid library CCmax; conditions: mean of both orientations
T45 chain: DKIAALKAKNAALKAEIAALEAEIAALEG

4H2865-AA = biological target: T46, 4H2865-AA; assay: two-hybrid library CCmax; conditions: mean of both orientations
T46 chain: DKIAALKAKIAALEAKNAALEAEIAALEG

4H909-AA = biological target: T47, 4H909-AA; assay: two-hybrid library CCmax; conditions: mean of both orientations
T47 chain: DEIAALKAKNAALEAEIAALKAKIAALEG

4H3130-AA = biological target: T48, 4H3130-AA; assay: two-hybrid library CCmax; conditions: mean of both orientations
T48 chain: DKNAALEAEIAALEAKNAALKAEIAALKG

4H1842-AA = biological target: T49, 4H1842-AA; assay: two-hybrid library CCmax; conditions: mean of both orientations
T49 chain: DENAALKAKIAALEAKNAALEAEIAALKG

4H797-AA = biological target: T50, 4H797-AA; assay: two-hybrid library CCmax; conditions: mean of both orientations
T50 chain: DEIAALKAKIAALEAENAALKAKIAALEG

## DKNAQLKQEIAELEQEIAELEWKNAQLKQ [4H3592-bA]
4H3907-bA
  interaction score: 0.467
4H3592-bA
  interaction score: -0.131
P4A-bH
  interaction score: 1.36
4H4038-bA
  interaction score: -0.458
4H3601-bA
  interaction score: -0.03

## DENAALKAEIAALEAKNAALKAKIAALEG [4H1597-AA]
4H2253-AA
  interaction score: -1.29
4H171-AA
  interaction score: -0.742
4H3120-AA
  interaction score: -1.49
4H310-AA
  interaction score: -0.161
4H2162-AA
  interaction score: -1.31
4H485-AA
  interaction score: -1.53
4H3865-AA
  interaction score: 0.833
4H3016-AA
  interaction score: -1.4
4H2330-AA
  interaction score: -1.59
4H1626-AA
  interaction score: -1.36
4H94-AA
  interaction score: -0.751
4H536-AA
  interaction score: -0.234
4H2109-AA
  interaction score: -1.06
4H3697-AA
  interaction score: 0.353
4H458-AA
  interaction score: -1.71
4H1597-AA
  interaction score: 0.478
4H2389-AA
  interaction score: 2.15
4H3590-AA
  interaction score: 0.533
4H1864-AA
  interaction score: 0.43
4H3753-AA
  interaction score: -0.89
4H850-AA
  interaction score: 1.96
4H3395-AA
  interaction score: -1.14
4H745-AA
  interaction score: -1.15
4H3410-AA
  interaction score: 2
4H2438-AA
  interaction score: -0.641
4H2725-AA
  interaction score: 0.827
4H570-AA
  interaction score: -1.39
4H710-AA
  interaction score: -1.99
4H2649-AA
  interaction score: -0.826
4H2473-AA
  interaction score: -1.3
4H174-AA
  interaction score: -0.236
4H2698-AA
  interaction score: -0.556
4H3381-AA
  interaction score: -0.659
4H930-AA
  interaction score: -1.69
4H629-AA
  interaction score: 0.0113
4H891-AA
  interaction score: -1.56
4H1877-AA
  interaction score: 2.43
4H2274-AA
  interaction score: -1.74
4H3165-AA
  interaction score: -0.486
4H3009-AA
  interaction score: -1.02
4H2865-AA
  interaction score: 0.229
4H909-AA
  interaction score: -1.1
4H3130-AA
  interaction score: -1.55
4H1842-AA
  interaction score: -0.303
4H797-AA
  interaction score: 0.0984
